Drawing on PMC13252954, this text covers stoichiometry N and 2-MeS-ADP-induced platelet aggregation in human platelet-rich plasma (plate aggregometry), % aggregation for 3 substances.

The target in experiment [1] is PII SVMP zymogen (Venom metalloprotease PII-SVMP EOC00006, Echis ocellatus) (Echis ocellatus). In words: SEC + other: non-reducing SDS-PAGE.
The target in experiment [2] is PIΔC SVMP metalloproteinase (MP) domain (Echis ocellatus). In words: SEC.
Experiment [3] concerns the target integrin αIIbβ3 (human (endogenous in platelets)) (UniProt P08514).

One may read the stoichiometry N as a count of units in the complex or per binding partner.

UniProt P08514, sequence (P08514 32-1039, chain 1 of 2): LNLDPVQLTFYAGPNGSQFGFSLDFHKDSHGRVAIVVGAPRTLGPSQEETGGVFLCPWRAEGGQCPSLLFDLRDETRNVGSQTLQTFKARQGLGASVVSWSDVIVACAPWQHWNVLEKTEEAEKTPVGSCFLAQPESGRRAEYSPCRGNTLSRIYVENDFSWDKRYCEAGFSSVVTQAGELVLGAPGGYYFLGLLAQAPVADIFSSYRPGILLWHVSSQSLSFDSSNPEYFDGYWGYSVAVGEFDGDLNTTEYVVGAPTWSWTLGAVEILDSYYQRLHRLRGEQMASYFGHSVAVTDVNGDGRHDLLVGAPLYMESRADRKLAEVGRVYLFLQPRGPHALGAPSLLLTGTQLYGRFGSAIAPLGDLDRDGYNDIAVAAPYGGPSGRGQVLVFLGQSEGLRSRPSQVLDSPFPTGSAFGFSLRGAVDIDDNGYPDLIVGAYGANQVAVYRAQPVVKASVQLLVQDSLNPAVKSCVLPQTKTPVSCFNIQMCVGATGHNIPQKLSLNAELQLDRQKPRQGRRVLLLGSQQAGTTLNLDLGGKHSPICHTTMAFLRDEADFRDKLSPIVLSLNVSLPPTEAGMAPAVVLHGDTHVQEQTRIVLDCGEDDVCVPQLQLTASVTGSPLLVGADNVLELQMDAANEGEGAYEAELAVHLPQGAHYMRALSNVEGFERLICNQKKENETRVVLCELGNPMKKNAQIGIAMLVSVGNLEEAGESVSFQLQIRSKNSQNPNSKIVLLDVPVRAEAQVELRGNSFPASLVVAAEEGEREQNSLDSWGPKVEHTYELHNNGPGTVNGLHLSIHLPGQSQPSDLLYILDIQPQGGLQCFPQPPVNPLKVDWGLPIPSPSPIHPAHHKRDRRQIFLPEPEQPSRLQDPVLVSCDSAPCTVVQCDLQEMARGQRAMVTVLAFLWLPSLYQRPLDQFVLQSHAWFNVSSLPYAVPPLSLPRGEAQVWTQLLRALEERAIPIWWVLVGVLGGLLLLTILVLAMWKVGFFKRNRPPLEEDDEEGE
UniProt P08514, sequence (P05106 27-788, chain 2 of 2, further chain): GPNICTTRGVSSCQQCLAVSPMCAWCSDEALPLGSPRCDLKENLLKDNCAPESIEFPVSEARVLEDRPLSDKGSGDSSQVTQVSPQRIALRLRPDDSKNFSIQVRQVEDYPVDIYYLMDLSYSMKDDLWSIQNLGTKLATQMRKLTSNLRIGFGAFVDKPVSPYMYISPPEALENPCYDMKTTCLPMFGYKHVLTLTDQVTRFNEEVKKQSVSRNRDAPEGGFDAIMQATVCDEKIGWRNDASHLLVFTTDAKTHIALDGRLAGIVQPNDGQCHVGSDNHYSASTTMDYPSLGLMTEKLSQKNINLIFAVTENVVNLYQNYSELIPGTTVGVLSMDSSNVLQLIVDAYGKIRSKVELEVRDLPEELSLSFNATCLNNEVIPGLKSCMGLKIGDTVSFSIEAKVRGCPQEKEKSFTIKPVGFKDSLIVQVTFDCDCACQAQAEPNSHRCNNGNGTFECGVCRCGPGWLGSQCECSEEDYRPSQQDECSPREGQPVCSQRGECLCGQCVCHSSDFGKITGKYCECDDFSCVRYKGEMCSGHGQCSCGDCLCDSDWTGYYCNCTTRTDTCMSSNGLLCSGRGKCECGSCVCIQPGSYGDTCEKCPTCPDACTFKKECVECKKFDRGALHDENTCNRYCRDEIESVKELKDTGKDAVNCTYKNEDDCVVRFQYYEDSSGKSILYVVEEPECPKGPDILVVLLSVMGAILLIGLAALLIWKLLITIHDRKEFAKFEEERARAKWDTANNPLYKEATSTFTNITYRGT

As for “PII SVMP zymogen (Venom metalloprotease PII-SVMP EOC00006, Echis ocellatus) (from UniProt A0A3G1E3U2 1-494) (enzyme)”, the stoichiometry N in experiment [1] is 2. Regarding PI SVMP prodomain (domain or fragment), in experiment [2], the stoichiometry N was 1.

Regarding activated PII SVMP (enzyme), the 2-MeS-ADP-induced platelet aggregation in human platelet-rich plasma (plate aggregometry), % aggregation at 500 nM SVMP (% aggregation) in experiment [3] came out at 12.
